The results in this text go back to patent publication US20240116985A1, “STAPLED PEPTIDES AND METHODS THEREOF” (priority 2020, published 2024).

Starred links: 1 amine or outer side, 2 acyl side, 3 side chain; linkers in the order of their positions; H or OH if unused. Positions of bridges follow the written chain, without caps; N, C: chain ends. Non-standard residues stand in square brackets, D forms with d. Primed or numbered codes have the meaning given here. No end group written: not given here. *: point of attachment. PyrS2″ = (S)-3-amino-1-((pent-4-en-1-yloxy)carbonyl)pyrrolidine-3-carboxylic acid (stapling residue), C=CCCCOC(=O)N1CC[C@@](N[*:1])(C(=O)[*:2])C1; B5(4) = 2,2-bis(4-pentenyl)glycine = 2-amino-2-(pent-4-en-1-yl)hept-6-enoic acid (stitching residue), C=CCCCC(CCCC=C)(N[*:1])C(=O)[*:2]; B5(5) = 2,2-bis(4-pentenyl)glycine, 2-amino-2-(pent-4-en-1-yl)hept-6-enoic acid (stitching residue), C=CCCCC(CCCC=C)(N[*:1])C(=O)[*:2]; PyrS2 = (S)-3-amino-1-((pent-4-en-1-yloxy)carbonyl)pyrrolidine-3-carboxylic acid, C=CCCCOC(=O)N1CC[C@@](N[*:1])(C(=O)[*:2])C1; NdiMeButC = N-terminal 4-(dimethylamino)butanoyl, CN(C)CCCC(=O)*; Phe(3-CF3) = N[C@@H](Cc1cccc(C(F)(F)F)c1)C(=O)O; Phe(4-CF3) = N[C@@H](Cc1ccc(C(F)(F)F)cc1)C(=O)O; Phe(3-COOH) = N[C@@H](Cc1cccc(C(=O)O)c1)C(=O)O; Phe(2-CF3) = N[C@@H](Cc1ccccc1C(F)(F)F)C(=O)O; 2Nal = N[C@@H](Cc1ccc2ccccc2c1)C(=O)O; Bta = N[C@@H](Cc1csc2ccccc12)C(=O)O; αAllylPro = C=CC[C@@]1(C(=O)O)CCCN1; hPhe = N[C@@H](CCc1ccccc1)C(=O)O; tBuAla = CC(C)(C)C[C@H](N)C(=O)O; 3Thi = N[C@@H](Cc1ccsc1)C(=O)O; Octanoyl = CCCCCCCC(=O)*; Aib = CC(C)(N)C(=O)O

Sequence of B-cat-Halo (beta-catenin HaloTag NanoBRET construct expressed in HEK293 cells) (P35222 whole entry): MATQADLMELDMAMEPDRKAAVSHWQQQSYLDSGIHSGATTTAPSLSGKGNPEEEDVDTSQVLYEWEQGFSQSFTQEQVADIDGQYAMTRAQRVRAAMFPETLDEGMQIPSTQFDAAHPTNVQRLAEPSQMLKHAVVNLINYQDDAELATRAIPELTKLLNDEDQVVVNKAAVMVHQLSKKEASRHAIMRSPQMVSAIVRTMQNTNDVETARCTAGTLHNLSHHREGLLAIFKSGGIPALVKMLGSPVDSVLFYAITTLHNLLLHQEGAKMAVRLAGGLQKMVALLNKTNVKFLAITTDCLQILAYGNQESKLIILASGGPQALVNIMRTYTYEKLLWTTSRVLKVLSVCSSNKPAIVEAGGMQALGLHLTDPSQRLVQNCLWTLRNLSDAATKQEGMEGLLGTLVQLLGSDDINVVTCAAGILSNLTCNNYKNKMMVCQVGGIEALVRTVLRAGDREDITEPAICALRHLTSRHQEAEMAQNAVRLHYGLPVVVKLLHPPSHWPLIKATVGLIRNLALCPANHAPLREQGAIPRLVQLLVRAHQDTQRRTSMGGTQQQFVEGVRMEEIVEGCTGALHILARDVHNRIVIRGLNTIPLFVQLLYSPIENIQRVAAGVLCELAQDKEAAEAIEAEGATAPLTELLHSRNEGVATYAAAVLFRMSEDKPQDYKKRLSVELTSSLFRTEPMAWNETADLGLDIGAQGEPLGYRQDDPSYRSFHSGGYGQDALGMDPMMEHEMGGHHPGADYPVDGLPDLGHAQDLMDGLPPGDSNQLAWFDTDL
Sequence of Bcat-Halo (P35222 whole entry): as above

One test has as its target Bcat-Halo (UniProt P35222). Kind of test: NanoBRET Abs IC50, HEK293 cells, Bcat-Halo / TCF4-Luc. In general terms: BRET reads energy transfer from a luciferase to a nearby fluorophore.
Ac-[αAllylPro]D[tBuAla][B5(4)]D[Phe(3-COOH)]QAFV[PyrS2″][3Thi][2Nal]A-NH2 (staple 1-4, 4-11) [I-2310] registered a 50% inhibitory concentration (IC50) of 8900 nM.

The molecule Ac-[αAllylPro]D[tBuAla][B5(4)]D[Phe(3-COOH)]QAFV[PyrS2″][3Thi][RbMe2NapA]A-NH2 (staple 1-4, 4-11) [I-2312] had an IC50 of 5200 nM.

On to Ac-[αAllylPro]D[tBuAla][B5(4)]D[Phe(3-COOH)]QAFV[PyrS2″][3Thi][SbMe2NapA]A-NH2 (staple 1-4, 4-11) [I-2314], for which the concentration for half-maximal inhibition (IC50) is > 20000 nM.

The target in a further test is full-length beta-Catenin (Uniprot ID P35222) (Homo sapiens (Human)) (UniProt P35222). Kind of test: FP competition; full-length beta-catenin, competitor 5FAM-TCF4(10-53).
Target sequence in this assay (P35222 whole entry, one chain of several): as the sequence (P35222 whole entry) above
Take Octanoyl-[αAllylPro]D[tBuAla][B5(4)]DDAAFS[PyrS2″]F[Bta]S-NH2 (staple 1-4, 4-11) [I-1355]: the concentration for a half-maximal effect (EC50) came to 213 nM.

Ac-[αAllylPro]D[tBuAla][B5(4)]DDAAF[Phe(4-CF3)][PyrS2][3Thi][Bta]Q-NH2 (staple 1-4, 4-11) [I-1365] registered a 50% effective concentration (EC50) of 9 nM.

In turn, NdiMeButC-[αAllylPro]D[tBuAla][B5(4)]DDAAFS[PyrS2″]F[Bta]S-NH2 (staple 1-4, 4-11) [I-1354] yielded an EC50 of 48 nM.

Ac-[αAllylPro]D[tBuAla][B5(4)]DDAAF[Phe(3-CF3)][PyrS2][3Thi][Bta]Q-NH2 (staple 1-4, 4-11) [I-1364] yielded a concentration giving a half-maximal response (EC50) of 9 nM. Compared with the last molecule, the EC50 is about 5.3-fold lower.

Molecule [αAllylPro]D[tBuAla][B5(4)]DDAAFF[PyrS2″][hPhe][Bta]Q-NH2 (staple 1-4, 4-11) [I-1351] had a concentration giving a half-maximal response (EC50) of 258 nM.

A further test has as its target B-cat-Halo (beta-catenin HaloTag NanoBRET construct expressed in HEK293 cells) (UniProt P35222). Kind of test: NanoBRET in HEK293 cells, Bcat-Halo / TCF4-Luc (competitor TCF4-Luc); absolute IC50.
Turning to Ac-[αAllylPro]D[tBuAla][B5(5)]NT[Aib]AFR[PyrS2][3Thi][Bta]Q-NH2 (staple 1-4, 4-11) [I-2407], the half-inhibitory concentration (IC50) was > 20000 nM.

The molecule Ac-[αAllylPro]D[tBuAla][B5(5)]D[Phe(3-COOH)]AAFL[PyrS2][Phe(2-CF3)][Bta]QL[dL]-NH2 (staple 1-4, 4-11) [I-2396] showed an IC50 of 8300 nM.

Regarding Ac-[αAllylPro]D[tBuAla][B5(5)]NT[Aib]AFN[PyrS2″][3Thi][Bta]T-NH2 (staple 1-4, 4-11) [I-2416], the half-inhibitory concentration (IC50) was > 20000 nM.

As for Ac-[αAllylPro]D[tBuAla][B5(5)]NT[Aib]AFN[PyrS2″][3Thi][Bta]N-NH2 (staple 1-4, 4-11) [I-2415], the half-inhibitory concentration (IC50) is > 20000 nM.

In the case of propiolyl-[αAllylPro]D[tBuAla][B5(5)]DDAAFQ[PyrS2][3Thi][Bta]H-NH2 (staple 1-4, 4-11) [I-2402], the 50% inhibitory concentration (IC50) was > 20000 nM.

Ac-[αAllylPro]D[tBuAla][B5(5)]NT[Aib]AFN[PyrS2″][3Thi][Bta]H-NH2 (staple 1-4, 4-11) [I-2414]: the concentration for half-maximal inhibition (IC50) is > 20000 nM.

The target in another test is full-length beta-Catenin (Uniprot ID P35222) (Homo sapiens (Human)) (UniProt P35222). Kind of test: fluorescence polarization competition against 5FAM-TCF4(10-53), full-length beta-catenin. Background: Polarisation of emitted light reports the rotation of a fluorescent probe.
Target sequence in this assay (P35222 whole entry, one chain of several): as the sequence (P35222 whole entry) above
For the molecule Ac-[αAllylPro]D[tBuAla][B5(4)]D[Phe(3-COOH)]QAFV[PyrS2″][3Thi][2Nal]A-NH2 (staple 1-4, 4-11) [I-2310], the IC50 was determined as 18 nM.

Take Ac-[αAllylPro]D[tBuAla][B5(4)]D[Phe(3-COOH)]QAFV[PyrS2″][3Thi][RbMe2NapA]A-NH2 (staple 1-4, 4-11) [I-2312]: the 50% inhibitory concentration (IC50) was found to be 5 nM.

Ac-[αAllylPro]D[tBuAla][B5(4)]D[Phe(3-COOH)]QAFV[PyrS2″][3Thi][SbMe2NapA]A-NH2 (staple 1-4, 4-11) [I-2314] displayed an IC50 of 48 nM. This IC50 lies about 9.6-fold higher than the previous one.

Another test shares this target. Kind of test: fluorescence polarization competition; full-length beta-catenin, competitor 5FAM-TCF4(10-53) probe.
Target sequence in this assay (P35222 2-781 limits assumed): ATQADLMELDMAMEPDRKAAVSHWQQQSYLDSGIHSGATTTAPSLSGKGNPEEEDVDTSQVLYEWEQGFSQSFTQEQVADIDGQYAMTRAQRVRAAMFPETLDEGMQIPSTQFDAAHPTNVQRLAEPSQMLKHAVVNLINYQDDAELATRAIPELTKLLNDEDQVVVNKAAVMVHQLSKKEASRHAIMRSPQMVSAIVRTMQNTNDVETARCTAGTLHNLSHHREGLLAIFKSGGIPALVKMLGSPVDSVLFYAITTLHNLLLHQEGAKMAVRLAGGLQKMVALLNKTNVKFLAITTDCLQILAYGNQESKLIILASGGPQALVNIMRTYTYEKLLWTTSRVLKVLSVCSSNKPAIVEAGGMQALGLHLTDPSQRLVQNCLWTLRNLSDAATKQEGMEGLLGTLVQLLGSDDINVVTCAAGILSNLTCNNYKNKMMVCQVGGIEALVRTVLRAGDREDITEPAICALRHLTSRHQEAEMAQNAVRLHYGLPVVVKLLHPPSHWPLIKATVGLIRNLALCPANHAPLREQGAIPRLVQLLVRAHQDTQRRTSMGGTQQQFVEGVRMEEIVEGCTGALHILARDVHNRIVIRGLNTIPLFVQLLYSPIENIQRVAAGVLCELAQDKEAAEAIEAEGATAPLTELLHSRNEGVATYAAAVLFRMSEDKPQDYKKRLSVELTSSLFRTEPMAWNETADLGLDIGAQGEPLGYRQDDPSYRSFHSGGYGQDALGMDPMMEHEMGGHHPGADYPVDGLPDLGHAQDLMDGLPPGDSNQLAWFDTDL
Molecule Ac-[αAllylPro]D[tBuAla][B5(5)]NT[Aib]AFR[PyrS2][3Thi][Bta]Q-NH2 (staple 1-4, 4-11) [I-2407] showed an IC50 of 138 nM.

As for Ac-[αAllylPro]D[tBuAla][B5(5)]D[Phe(3-COOH)]AAFL[PyrS2][Phe(2-CF3)][Bta]QL[dL]-NH2 (staple 1-4, 4-11) [I-2396], the IC50 came out at 187 nM.

Ac-[αAllylPro]D[tBuAla][B5(5)]NT[Aib]AFN[PyrS2″][3Thi][Bta]T-NH2 (staple 1-4, 4-11) [I-2416] returned a half-maximal inhibitory concentration (IC50) of 133 nM.

For Ac-[αAllylPro]D[tBuAla][B5(5)]NT[Aib]AFN[PyrS2″][3Thi][Bta]N-NH2 (staple 1-4, 4-11) [I-2415], the IC50 was 147 nM. This IC50 and that of the molecule before are within 1.5-fold of each other.

Take propiolyl-[αAllylPro]D[tBuAla][B5(5)]DDAAFQ[PyrS2][3Thi][Bta]H-NH2 (staple 1-4, 4-11) [I-2402]: the concentration for half-maximal inhibition (IC50) came out at 16 nM. This IC50 lies about 9.2-fold lower than the previous one.

Molecule Ac-[αAllylPro]D[tBuAla][B5(5)]NT[Aib]AFN[PyrS2″][3Thi][Bta]H-NH2 (staple 1-4, 4-11) [I-2414] registered an IC50 of 7 nM. This IC50 is about 2.3-fold lower than that of the molecule before.

The next test shares this target. Kind of test: fluorescence polarization competition; full-length beta-catenin with 5FAM-TCF4(10-53) probe as competitor.
Target sequence in this assay (P35222 2-781 limits assumed): as above
Turning to Octanoyl-[αAllylPro]D[tBuAla][B5(4)]DDAAFS[PyrS2″]F[Bta]S-NH2 (staple 1-4, 4-11) [I-1355], the half-maximal inhibitory concentration (IC50) was determined as 213 nM.

As to Ac-[αAllylPro]D[tBuAla][B5(4)]DDAAF[Phe(4-CF3)][PyrS2][3Thi][Bta]Q-NH2 (staple 1-4, 4-11) [I-1365], the half-maximal inhibitory concentration (IC50) was 9 nM.

NdiMeButC-[αAllylPro]D[tBuAla][B5(4)]DDAAFS[PyrS2″]F[Bta]S-NH2 (staple 1-4, 4-11) [I-1354] had a concentration for half-maximal inhibition (IC50) of 48 nM.

The molecule Ac-[αAllylPro]D[tBuAla][B5(4)]DDAAF[Phe(3-CF3)][PyrS2][3Thi][Bta]Q-NH2 (staple 1-4, 4-11) [I-1364] displayed a concentration for half-maximal inhibition (IC50) of 9 nM.

On to [αAllylPro]D[tBuAla][B5(4)]DDAAFF[PyrS2″][hPhe][Bta]Q-NH2 (staple 1-4, 4-11) [I-1351], for which the IC50 is 258 nM.

Usually IC50 stands for the point on the concentration scale where inhibition reaches its midpoint. The term EC50 denotes the concentration at which the effect is half-maximal. Read a high EC50 as a less potent agent.
